In the supplement of paper PMC10567573:

B1: MNAT1 (parent)
chain: SLREYNDFLEEVEEIVFNLTNNVD

Variants of: B1
Assay: protein stability index of a GFP-peptide fusion (GPS, HEK-293T) (PSI 1-6); higher = more stable
Details: c terminus: a fixed tail appended
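Further: lentivirally expressed fusions sorted by FACS into six bins by GFP to DsRed ratio, PSI derived from sequencing read proportions per bin multiplied by bin number.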

Protein stability index: each site, then its substitutions
E4: H 2.66, C 1.95, L 2.5, D 2.19, T 1.72, G 2.39, P 2.98, V 2.08, K 2.75, F 2.34, S 2.31, N 2.04, A 1.88, R 1.85, Q 2.27, Y 1.39, W 1.8, M 2.26, I 1.69
E11: A 1.86, C 2.33
L9: I 2.26, H 4.22, T 4.07, E 4.32, V 3.77, P 4.61, M 2.76, S 4.82, Y 3.59, C 3.36, W 1.79, A 4.09, K 3.98, Q 4.07, R 3.83, F 3.05, D 4.5, N 4.6, G 3.98
N6: R 2.23, V 1.68, I 2.63, A 2.82, M 1.76, H 1.8, F 2.77, K 3.15, T 2.27, C 1.78, G 3.17, E 1.76, D 2.4, S 3.31, Q 1.75, W 2.38, Y 1.87, P 3.08
R3: F 2.6, K 2.06, D 2.32, M 1.91, N 2.18, L 1.64, G 2.78, S 2.55, W 1.62, A 2.58, Y 1.86, E 2.12, V 1.61, P 3.52, Q 2.94, C 1.77, T 1.83, H 2.71, I 1.69
F8: D 4.87, G 4.11, M 3.51, C 3.8, V 3.63, A 3.06, I 2.57, T 4.55, K 4.28, P 4.78, L 3.43, R 4.61, E 5.2, N 4.84, Q 4.55, H 4.72, Y 3.6, S 4.91, W 2.53
E10: I 1.3, G 2.72, C 2.74, R 1.86, Y 2.15, N 1.55, S 2.41, V 2.25, F 2.97, M 1.4, T 2.01, K 1.91, W 1.95, P 3.54, L 1.52, Q 2.62, D 1.95, A 1.58
Y5: H 3.81, T 4.08, E 4.35, K 4.55, F 1.58, V 2.05, R 4.19, M 1.73, A 3.78, W 2.56, C 3.11, L 2.16, Q 4.19, I 2.61, G 3.91, N 4.14, P 3.81, D 2.23, S 4.29
D7: K 1.58, S 2.05, W 1.96, C 2.27, R 1.63, T 1.47, A 2.43, V 2.16, G 1.75, Y 1.79, H 1.31, N 2.49, P 3, L 1.94, Q 1.83, M 2.27, F 2.32, E 1.91
L2: P 3.72, W 1.79, E 3.35, R 3.65, F 1.96, Y 2.36, G 3.08, H 3.09, I 2.31, Q 2.72, V 2.33, K 2.6, S 2.71, N 2.86, T 3.01, M 2.13
